Patent US20190010233A1

Assays:
[1] = target: cyno PD-L1^ECD-hFc protein (cyno) (UniProt G7PSE7); assay: ELISA, 30 nM mAb
[2] = target: full length cyno PD-L1 on cells (cyno) (UniProt G7PSE7); assay: FACS CHO-K1-cPD-L1, 0.001 nM mAb as printed (second such column)
[3] = target: human PD-L1^ECD-hFc protein (human) (UniProt Q9NZQ7); assay: ELISA, 30 nM mAb
[4] = target: cyno PD-L1^ECD-hFc protein (cyno) (UniProt G7PSE7); assay: ELISA, 30 nM mAb; remark: listed apart in the source
[5] = target: human PD-L1^ECD-hFc protein (human) (UniProt Q9NZQ7); assay: ELISA, 0.001 nM mAb
[6] = target: cyno PD-L1^ECD-hFc protein (cyno) (UniProt G7PSE7); assay: ELISA, 0.001 nM mAb
[7] = target: human PD-L1^ECD-hFc protein (human) (UniProt Q9NZQ7); assay: ELISA, 0.0001 nM mAb
[8] = target: cyno PD-L1^ECD-hFc protein (cyno) (UniProt G7PSE7); assay: ELISA, 0.0001 nM mAb
[9] = target: human PD-L1^ECD-hFc protein (human) (UniProt Q9NZQ7); assay: ELISA, 0.003 nM mAb
[10] = target: cyno PD-L1^ECD-hFc protein (cyno) (UniProt G7PSE7); assay: ELISA, 0.003 nM mAb
[11] = target: human PD-L1^ECD-hFc protein (human) (UniProt Q9NZQ7); assay: ELISA, 1.111 nM mAb
[12] = target: cyno PD-L1^ECD-hFc protein (cyno) (UniProt G7PSE7); assay: ELISA, 1.111 nM mAb
[13] = target: human PD-L1^ECD-hFc protein (human) (UniProt Q9NZQ7); assay: ELISA, 3 nM mAb
[14] = target: cyno PD-L1^ECD-hFc protein (cyno) (UniProt G7PSE7); assay: ELISA, 3 nM mAb
[15] = target: full length human PD-L1 on cells (human) (UniProt Q9NZQ7); assay: FACS CHO-K1-hPD-L1, 1 nM mAb
[16] = target: human PD-L1^ECD-hFc protein (human) (UniProt Q9NZQ7); assay: ELISA, 1 nM mAb
[17] = target: cyno PD-L1^ECD-hFc protein (cyno) (UniProt G7PSE7); assay: ELISA, 1 nM mAb
[18] = target: human PD-L1^ECD-hFc protein (human) (UniProt Q9NZQ7); assay: ELISA, 3.333 nM mAb
[19] = target: cyno PD-L1^ECD-hFc protein (cyno) (UniProt G7PSE7); assay: ELISA, 3.333 nM mAb
[20] = target: human PD-L1^ECD-hFc protein (human) (UniProt Q9NZQ7); assay: ELISA, 0.123 nM mAb
[21] = target: cyno PD-L1^ECD-hFc protein (cyno) (UniProt G7PSE7); assay: ELISA, 0.123 nM mAb
[22] = target: full length cyno PD-L1 on cells (cyno) (UniProt G7PSE7); assay: FACS CHO-K1-cPD-L1, 1.23 nM mAb
[23] = target: full length cyno PD-L1 on cells (cyno) (UniProt G7PSE7); assay: FACS CHO-K1-cPD-L1, 0.0003 nM mAb
[24] = target: full length human PD-L1 on cells (human) (UniProt Q9NZQ7); assay: FACS CHOK1-hPD-L1, 3 nM mAb
[25] = target: full length cyno PD-L1 on cells (cyno) (UniProt G7PSE7); assay: FACS CHO-K1-cPD-L1, 33.33 nM mAb
[26] = target: full length cyno PD-L1 on cells (cyno) (UniProt G7PSE7); assay: FACS CHO-K1-cPD-L1, 0.03 nM mAb
[27] = target: full length cyno PD-L1 on cells (cyno) (UniProt G7PSE7); assay: FACS CHO-K1-cPD-L1, 300 nM mAb
[28] = target: human PD-L1^ECD-hFc protein (human) (UniProt Q9NZQ7); assay: ELISA, 10 nM mAb
[29] = target: full length cyno PD-L1 on cells (cyno) (UniProt G7PSE7); assay: FACS CHO-K1-cPD-L1, 1 nM mAb
[30] = target: full length human PD-L1 on cells (human) (UniProt Q9NZQ7); assay: FACS CHOK1-hPD-L1, 300 nM mAb
[31] = target: full length human PD-L1 on cells (human) (UniProt Q9NZQ7); assay: FACS CHO-K1-hPD-L1, 10 nM mAb
[32] = target: full length cyno PD-L1 on cells (cyno) (UniProt G7PSE7); assay: FACS CHO-K1-cPD-L1, 0.14 nM mAb
[33] = target: full length cyno PD-L1 on cells (cyno) (UniProt G7PSE7); assay: FACS CHO-K1-cPD-L1, 3 nM mAb
[34] = target: human PD-L1^ECD-hFc protein (human) (UniProt Q9NZQ7); assay: ELISA, mAb concentration not given
hPD-L2 (human) = hPD-L2 (human) (UniProt Q9BQ51); assay: ELISA, mAb concentration not given
hPD-L2 (human), sequence (Q9BQ51 20-219 limits assumed): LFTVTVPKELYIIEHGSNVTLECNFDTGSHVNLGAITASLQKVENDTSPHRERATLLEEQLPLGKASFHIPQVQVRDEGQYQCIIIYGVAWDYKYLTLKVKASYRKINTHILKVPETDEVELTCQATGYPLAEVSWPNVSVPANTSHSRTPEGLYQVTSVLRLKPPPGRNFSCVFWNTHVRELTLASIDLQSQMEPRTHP

human PD-L1^ECD-hFc protein (human), sequence (Q9NZQ7 19-239): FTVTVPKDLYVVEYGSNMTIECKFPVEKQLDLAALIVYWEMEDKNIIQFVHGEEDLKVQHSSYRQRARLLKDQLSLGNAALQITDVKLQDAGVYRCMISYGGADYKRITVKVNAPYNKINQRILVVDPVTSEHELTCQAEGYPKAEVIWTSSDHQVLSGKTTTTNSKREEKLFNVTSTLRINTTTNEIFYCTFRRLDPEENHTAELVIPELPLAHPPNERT
full length human PD-L1 on cells (human), sequence (Q9NZQ7 19-290 limits assumed): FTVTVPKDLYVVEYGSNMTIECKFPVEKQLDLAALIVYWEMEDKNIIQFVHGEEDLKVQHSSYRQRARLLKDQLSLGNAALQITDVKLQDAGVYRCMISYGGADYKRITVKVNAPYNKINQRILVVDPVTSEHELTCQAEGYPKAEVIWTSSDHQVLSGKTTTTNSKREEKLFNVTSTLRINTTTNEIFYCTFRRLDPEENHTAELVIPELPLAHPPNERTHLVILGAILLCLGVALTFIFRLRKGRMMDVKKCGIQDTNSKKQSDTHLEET
cyno PD-L1^ECD-hFc protein (cyno), sequence (G7PSE7 entry or part of it limits assumed): as the sequence (Q9NZQ7 19-239) above, with A33T, A34S, S62N, R68Q, Q82R, F173L, T185A, T192I, H215L counted along it
full length cyno PD-L1 on cells (cyno), sequence (G7PSE7 entry or part of it limits assumed): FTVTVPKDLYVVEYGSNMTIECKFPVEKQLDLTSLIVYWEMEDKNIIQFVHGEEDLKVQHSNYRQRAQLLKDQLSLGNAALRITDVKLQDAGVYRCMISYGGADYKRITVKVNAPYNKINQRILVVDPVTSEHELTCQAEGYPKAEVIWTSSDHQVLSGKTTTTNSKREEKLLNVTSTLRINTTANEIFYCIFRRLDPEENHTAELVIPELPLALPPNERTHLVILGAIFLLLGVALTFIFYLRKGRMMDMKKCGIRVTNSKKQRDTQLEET

**Q.** For IgG control (human IgG) (antibody), which OD450 nm [1] is on record?
**A.** 0.306

**Q.** And the Mean fluorescence intensity [2]?
**A.** 7.33

**Q.** And the OD450 nm [3]?
**A.** 0.315

**Q.** And the OD450 nm [4]?
**A.** 0.12

**Q.** And the OD450 nm [5]?
**A.** 0.149

**Q.** What about the OD450 nm [6] of the same substance?
**A.** 0.0972

**Q.** What about the OD450 nm [7] of the same substance?
**A.** 0.162

**Q.** And the OD450 nm [8]?
**A.** 0.0988

**Q.** And the OD450 nm [9]?
**A.** 0.298

**Q.** And the OD450 nm [10]?
**A.** 0.302

**Q.** And the OD450 nm [11]?
**A.** 0.16

**Q.** What about the OD450 nm [12] of the same substance?
**A.** 0.16

**Q.** What about the OD450 nm [13] of the same substance?
**A.** 0.277

**Q.** And the OD450 nm [14]?
**A.** 0.282

**Q.** And the Mean fluorescence intensity [15]?
**A.** 2.51

**Q.** What about the OD450 nm [16] of the same substance?
**A.** 0.157

**Q.** And the OD450 nm [17]?
**A.** 0.0989

**Q.** What about the OD450 nm [18] of the same substance?
**A.** 0.11

**Q.** What about the OD450 nm [19] of the same substance?
**A.** 0.11

**Q.** And the OD450 nm [20]?
**A.** 0.11

**Q.** And the OD450 nm [21]?
**A.** 0.11

**Q.** What about the Mean fluorescence intensity [22] of the same substance?
**A.** 2.82

**Q.** And the Mean fluorescence intensity [23]?
**A.** 3.76

**Q.** And the Mean fluorescence intensity [24]?
**A.** 3.56

**Q.** What about the Mean fluorescence intensity [25] of the same substance?
**A.** 2.94

**Q.** And the Mean fluorescence intensity [26]?
**A.** 3.79

**Q.** And the Mean fluorescence intensity [27]?
**A.** 15.6

**Q.** What about the OD450 nm [28] of the same substance?
**A.** 0.15

**Q.** And the Mean fluorescence intensity [29]?
**A.** 1.83

**Q.** What about the Mean fluorescence intensity [30] of the same substance?
**A.** 4.86

**Q.** What about the Mean fluorescence intensity [31] of the same substance?
**A.** 2.73

**Q.** What about the Mean fluorescence intensity [32] of the same substance?
**A.** 2.74

**Q.** What about the Mean fluorescence intensity [33] of the same substance?
**A.** 3.91

**Q.** And the OD450 nm [34]?
**A.** 0.206

**Q.** And the OD450 nm (hPD-L2 (human))?
**A.** 0.189
